Like-named read-outs stand apart in the source and are kept apart here.
Assays:
[1] = biological target: Mouse EphrinB2-His ectodomain (mouse) (UniProt P52800); assay: mass photometry
[2] = biological target: Rat EphB1-Fc ectodomain (rat) (UniProt P09759); assay: BLI
[3] = biological target: Rat EphB1-Fc ectodomain (rat) (UniProt P09759); assay: AlphaScreen or HTRF
[4] = biological target: T1, Human EphB1-His ectodomain (human, UniProt P54762 18-540); assay: BLI
T1 sequence: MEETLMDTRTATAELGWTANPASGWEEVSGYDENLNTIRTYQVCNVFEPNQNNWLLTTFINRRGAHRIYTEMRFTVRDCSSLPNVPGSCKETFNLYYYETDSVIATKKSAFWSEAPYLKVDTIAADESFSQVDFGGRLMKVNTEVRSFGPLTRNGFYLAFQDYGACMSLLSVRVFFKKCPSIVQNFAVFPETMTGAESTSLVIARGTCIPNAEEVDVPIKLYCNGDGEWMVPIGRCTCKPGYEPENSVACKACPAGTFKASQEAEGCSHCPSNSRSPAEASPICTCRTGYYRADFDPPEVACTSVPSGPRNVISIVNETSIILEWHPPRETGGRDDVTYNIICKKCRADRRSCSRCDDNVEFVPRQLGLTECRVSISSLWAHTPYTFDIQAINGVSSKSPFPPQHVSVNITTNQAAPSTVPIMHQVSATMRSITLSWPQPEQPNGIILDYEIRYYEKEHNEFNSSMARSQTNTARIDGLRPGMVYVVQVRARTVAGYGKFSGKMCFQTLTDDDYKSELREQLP

[5] = biological target: T2, Human EphB2-His ectodomain (human, UniProt P29323 19-543); assay: BLI
T2 sequence: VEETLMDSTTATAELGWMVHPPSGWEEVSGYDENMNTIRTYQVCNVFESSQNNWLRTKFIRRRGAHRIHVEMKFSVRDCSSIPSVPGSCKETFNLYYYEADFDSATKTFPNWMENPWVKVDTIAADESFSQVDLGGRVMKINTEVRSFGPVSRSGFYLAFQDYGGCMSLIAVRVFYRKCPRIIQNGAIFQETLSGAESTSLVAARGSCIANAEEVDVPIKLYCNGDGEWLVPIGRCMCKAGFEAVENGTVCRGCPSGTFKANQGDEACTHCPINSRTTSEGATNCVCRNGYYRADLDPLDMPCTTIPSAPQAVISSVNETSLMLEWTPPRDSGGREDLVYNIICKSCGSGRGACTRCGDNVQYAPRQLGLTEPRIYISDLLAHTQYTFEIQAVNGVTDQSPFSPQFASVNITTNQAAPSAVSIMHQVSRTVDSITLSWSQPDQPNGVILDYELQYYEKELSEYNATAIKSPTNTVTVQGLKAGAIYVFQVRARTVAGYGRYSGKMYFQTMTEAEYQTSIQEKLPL

[6] = biological target: T3, Human EphB2-His ectodomain (human), P29323; assay: mass photometry; details: remark: other sources report otherwise
T3 chain: T2 sequence

[7] = biological target: T4, Human EphB4-His ectodomain (human, UniProt P54760 16-539); assay: BLI
T4 sequence: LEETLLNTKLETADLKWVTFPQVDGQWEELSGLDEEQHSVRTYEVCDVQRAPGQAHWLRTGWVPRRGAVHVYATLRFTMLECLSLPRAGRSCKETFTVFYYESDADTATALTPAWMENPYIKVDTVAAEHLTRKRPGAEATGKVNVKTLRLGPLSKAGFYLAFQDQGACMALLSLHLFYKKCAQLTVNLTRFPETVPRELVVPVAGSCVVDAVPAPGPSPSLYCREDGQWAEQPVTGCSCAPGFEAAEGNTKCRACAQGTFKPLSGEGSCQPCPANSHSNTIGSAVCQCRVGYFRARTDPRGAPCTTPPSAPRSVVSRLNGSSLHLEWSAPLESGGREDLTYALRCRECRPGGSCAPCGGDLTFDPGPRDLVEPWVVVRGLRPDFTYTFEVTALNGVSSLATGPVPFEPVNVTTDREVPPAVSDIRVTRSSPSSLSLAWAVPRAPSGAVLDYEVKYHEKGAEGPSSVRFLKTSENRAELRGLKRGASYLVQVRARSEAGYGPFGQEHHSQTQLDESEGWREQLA

[8] = biological target: T2, Human EphB2-His ectodomain; assay: BLI; remark: listed apart in the source

A stoichiometry N [1] of 2, a KD1 (2:1 heterologous interaction model) [2] of less than 1 pM and a KD2 (dimer formation, 2:1 model) [2] of 39.7 nM were found for “Mouse EphrinB2-His ectodomain (from UniProt P52800 29-232) (domain or fragment)” in this work.

An IC50 [3] of 50 nM was found for “soluble Reelin protein (from UniProt Q60841 27-3461) (natural protein)” in this work.

B1: Human EphrinB1-Fc ectodomain (Fc fusion)
chain: LAKNLEPVSWSSLNPKFLSGKGLVIYPKIGDKLDIICPRAEAGRPYEYYKLYLVRPEQAAACSTVLDPNVLVTCNRPEQEIRFTIKFQEFSPNYMGLEFKKHHDYYITSTSNGSLEGLENREGGVCRTRTMKIIMKVGQDPNAVTPEQLTTSRPSKEADNTVKMATQAPGSRGSLGDSDGKHETVNQEEKSGPGASGGSSGDPDGFFNS
B1: binds [4]; binds [5].

B2: Human EphB2-His ectodomain, P29323 19-543 (domain or fragment)
chain: T2 sequence
A stoichiometry N [6] of 2 was found for B2 in this work.

B3: Human EphrinB2-Fc ectodomain (Fc fusion)
chain: IVLEPIYWNSSNSKFLPGQGLVLYPQIGDKLDIICPKVDSKTVGQYEYYKVYMVDKDQADRCTIKKENTPLLNCAKPDQDIKFTIKFQEFSPNLWGLEFQKNKDYYIISTSNGSLEGLDNQEGGVCQTRAMKILMKVGQDASSAGSTRNKDPTRRPELEAGTNGRSSTTSPFVKPNPGSSTDGNSAGHSGNNILGSEVALFA
B3: binds [4]; binds [7]; binds [8].

B4: Human EphrinB3-Fc ectodomain (Fc fusion)
chain: LSLEPVYWNSANKRFQAEGGYVLYPQIGDRLDLLCPRARPPGPHSSPNYEFYKLYLVGGAQGRRCEAPPAPNLLLTCDRPDLDLRFTIKFQEYSPNLWGHEFRSHHDYYIIATSDGTREGLESLQGGVCLTRGMKVLLRVGQSPRGGAVPRKPVSEMPMERDRGAAHSLEPGKENLPGDPTSNATSRGAEGPLPPPS
B4: binds [4]; binds [5].
